Laboratory results as given in patent publication US20240409663A1 (CONCEPT TO MEDICINE BIOTECH, published 2024).

Key:
[1] = molecular target: T1, human GPC3-his tag protein (human, UniProt P51654 25-559, limits assumed); experiment: SPR Biacore 8K, mAb captured on CM5, single dose GPC3-his
T1 construct: recombinant soluble antigen used as analyte in all Biacore runs; also called recombinant GPC3 protein; rhGPC3-His; not shown: His tag
Protocol: The binding of mouse monoclonal antibodies to human GPC3-his was tested with Biacore using a capture method. The antibodies were captured using CM5 sensor chip. A single dose of human GPC3-his tag protein was injected over captured antibody for 2 mins at a flow rate of 30 μl/min. The antigen was allowed to dissociate for 360 s. All the experiments were carried out on a Biacore 8K. Data analysis was carried out using Biacore 8K evaluation software.

human GPC3 on cells = molecular target: T2, human GPC3 on cells (human, UniProt P51654 25-554); experiment: FACS, GPC3-CHOK1 cells
T2 construct: whole, on cells; over-expressed on CHOK1 cells or endogenous on HEPG2, Hep3B and Huh-7 hepatocellular carcinoma cells; the cell line is named under assay; also called GPC3-CHOK1 cells; human GPC3 over-expressed CHOK1 cells
Protocol: Briefly, GPC3-CHOK1 cells were firstly incubated with Fc blocking reagent at 4° C. for 15 mins. Cells were washed by FACS buffer and divided to each well with 3-fold serially diluted 52H5D3B8, 52H5D3B8-1 #, 52H5D3B8-2 #, 52H5D3B8-3 #, 52H5D3B8-4 #, 52H5D3B8-5 #, 52H5D3B8-6 #, 52H5D3B8-7 #, 52H5D3B8-8 #, 52H5D3B8-9 #, 52H5D3B8-10 #, 52H5D3B8-11 #, 52H5D3B8-12 #, 52H5D3B8-13 #, 52H5D3B8-14 # and 52H5D3B8-15# chimeric mAbs starting at 30 μg/mL at 4° C. for 60 mins. Cells were washed by FACS buffer and fixed with 2% PFA at RT for 15 mins. […] Samples were washed twice with FACS buffer.

[2] = molecular target: T1, human GPC3-his tag protein; experiment: SPR Biacore 8K, mAb captured, one or two doses GPC3-his
Protocol: The binding of the optimized antibodies of 52H5D3B8 mAb to human GPC3-his was tested with Biacore using a capture method. A single dose or two doses of human GPC3-his tag protein was injected over captured antibody. All the experiments were carried out on a Biacore 8K. Data analysis was carried out using Biacore 8K evaluation software.

| Kd [1] [nM] | koff [1] [s⁻¹] | kon [1] [M⁻¹ s⁻¹] | EC50 (human GPC3 on cells) [µg/mL] | Kd [2] [nM] | koff [2] [s⁻¹] | kon [2] [M⁻¹ s⁻¹] | Binder |
| --- | --- | --- | --- | --- | --- | --- | --- |
| 0.446 | 9.01e-05 | 202000 | – | – | – | – | 172B4E9 mouse monoclonal antibody (antibody, V domains shown, mouse hybridoma antibody) VH: QVQLQQSGAELVRPGASVTLSCKASGYTFTDYEIHWVKQTPVHGLEWIGAIDPATGDTAYTQKFKGKAILTADTSSNTVYMELRGLTSEDSAVHFCTRFYSYAYWGQGTLVTVSA VL: DVVMTQTPLSLPVSLGDQASISCRSSQSLVHTNGHTYLQWYLQKSGQSPRLLIFKVSNRFSGVPDRFSGSGSGTDFKLKISRVEAEDLGVYFCSQSTHVPYTFGGGTKLEIK |
| 0.881 | 0.000162 | 184000 | – | – | – | – | 152E9F7 mouse monoclonal antibody (antibody, V domains shown, mouse hybridoma antibody) VH: QVQLQQSGAELVRPGASVTLSCKASGYTFTDYEIHWVKQTPVHGLEWIGAIDPETGDTAYTQKFKGKAILTADKSSNTVYMELRSLTSEDSAVYYCTRFYSYAYWGQGTLVTVSA VL: DVVMTQTPLSLPVSLGDQASISCRSSQSLVHTNGHTYLQWYLQKSGQSPKLLIYKVSNRFSGVPDRFSGSGSGTDFTLKISRVEAEDLGVYFCSQSTHVPYTFGGGTKLEIK |
| 1.57 | 0.000412 | 262000 | – | – | – | – | 18C1D9 mouse monoclonal antibody (antibody, V domains shown, mouse hybridoma antibody) VH: QVQLQQSGAELVRPGASVTLSCKASGYTFSDYEMHWVKQTPVHGLEWIGAIDPETGGTAYNQKFKGKATLTADKSSSTAYMELRSLTSEDSAVYYCTRYYSYAYWGQGTLVTVSA VL: DVVMTQSPLSLPVSLGDQASISCRSRQSLVHSNGNTYLQWYLQKPGQSPKLLIYKVSNRFSGVPDRFSGSGSGTDFTLKISRVEAEDLGVYFCFQSIHVPYTFGGGTKLEKK |
| 1.39 | 0.000317 | 228000 | – | – | – | – | 52H5D3B8 mouse monoclonal antibody (antibody, V domains shown, mouse hybridoma antibody) VH: QVQLQQSGAELVRPGASVKLSCKALGYTFTDYEMHWVKQTPVHGLEWIGAIHPGSGGTAYNQKFKGKATLTADKFSSTGYMELSSLTSEDSAVYYCTRFYSYAYWGQGTLVTVSA VL: DVVMTQTPLSLPVSLGDQASISCRSSQSLVHSNGNTYLQWYLQKPGQSPKLLIYKVSNRFSGVPDRFSGSGSGTDFILKISRVEAEDLGVYFCSQSIHVPYTFGGGTKLEIK |
| 1.22 | 0.000199 | 162000 | – | – | – | – | 171F9C5 mouse monoclonal antibody (antibody, V domains shown, mouse hybridoma antibody) VH: QVQLQQSGAELVRPGASVTLSCKASGYTFTDYEIHWVKQTPVHGLEWIGAIDPETDNTAYSQKFKGKAILTADKSSSTAYMELRSLTSEDSAVYYCTRYYSYAYWGQGTLVTVSA VL: DVVMTQTPLSLPVSLGDQASISCRSSQSPVHRNGNTYLHWYLQKPGQSPKLLIFKVSNRFSGVPDRFSGSGSGTDFTLKISRVAAEDLGVYFCSQTTHVPYTFGGGTKLEIK |
| 0.755 | 0.000169 | 223000 | – | – | – | – | 163E7D12 mouse monoclonal antibody (antibody, V domains shown, mouse hybridoma antibody) VH: QVQLQQSGAELVRPGASVTLSCKASGYTFTDYEMHWVKQTPVHGLEWIGAIGPETGSTAYNQRFKGKAIVTADKSSSTAYMELRSLTSEDSAVYYCTRYYSFAYWGQGTLVTVSA VL: DVVMTQTPLSLPVSLGGQASISCRSSQSLVHSNGNTYLQWYLQKPGQSPKLLIFKVSNRFSGVPDRFSGSGSGTDFTLKISRVEAEDLGVYFCFQSIHVPYTFGGGTKLEIK |
| – | – | – | 0.149 | 5.31 | 0.00121 | 228000 | 52H5D3B8-2# chimeric mAb (antibody, V domains shown, CDR3 mutant of the 52H5D3B8 chimeric mAb (human IgG1)) VH: QVQLQQSGAELVRPGASVKLSCKALGYTFTDYEMHWVKQTPVHGLEWIGAIHPGSGGTAYNQKFKGKATLTADKFSSTGYMELSSLTSEDSAVYYCTRFYSFAYWGQGTLVTVSA VL: DVVMTQTPLSLPVSLGDQASISCRSSQSLVHSNGNTYLQWYLQKPGQSPKLLIYKVSNRFSGVPDRFSGSGSGTDFILKISRVEAEDLGVYFCSQSIHVPYTFGGGTKLEIK |
| – | – | – | 0.232 | 3.97 | 0.000617 | 155000 | 52H5D3B8-7# chimeric mAb (antibody, V domains shown, CDR3 mutant of the 52H5D3B8 chimeric mAb (human IgG1)) VH: QVQLQQSGAELVRPGASVKLSCKALGYTFTDYEMHWVKQTPVHGLEWIGAIHPGSGGTAYNQKFKGKATLTADKFSSTGYMELSSLTSEDSAVYYCTRYYSYAYWGQGTLVTVSA VL: DVVMTQTPLSLPVSLGDQASISCRSSQSLVHSNGNTYLQWYLQKPGQSPKLLIYKVSNRFSGVPDRFSGSGSGTDFILKISRVEAEDLGVYFCSQSTHVPYTFGGGTKLEIK |
| – | – | – | 0.405 | 4.12 | 0.000412 | 100000 | 52H5D3B8-5# chimeric mAb (antibody, V domains shown, CDR3 mutant of the 52H5D3B8 chimeric mAb (human IgG1)) VH: QVQLQQSGAELVRPGASVKLSCKALGYTFTDYEMHWVKQTPVHGLEWIGAIHPGSGGTAYNQKFKGKATLTADKFSSTGYMELSSLTSEDSAVYYCTRYYSFAYWGQGTLVTVSA VL: DVVMTQTPLSLPVSLGDQASISCRSSQSLVHSNGNTYLQWYLQKPGQSPKLLIYKVSNRFSGVPDRFSGSGSGTDFILKISRVEAEDLGVYFCSQSIHVPYTFGGGTKLEIK |
| – | – | – | 0.104 | 10.9 | 0.00354 | 326000 | 52H5D3B8-11# chimeric mAb (antibody, V domains shown, CDR3 mutant of the 52H5D3B8 chimeric mAb (human IgG1)) VH: QVQLQQSGAELVRPGASVKLSCKALGYTFTDYEMHWVKQTPVHGLEWIGAIHPGSGGTAYNQKFKGKATLTADKFSSTGYMELSSLTSEDSAVYYCTRFYSFAYWGQGTLVTVSA VL: DVVMTQTPLSLPVSLGDQASISCRSSQSLVHSNGNTYLQWYLQKPGQSPKLLIYKVSNRFSGVPDRFSGSGSGTDFILKISRVEAEDLGVYFCFQSTHVPYTFGGGTKLEIK |
| – | – | – | 0.247 | 12.9 | 0.00216 | 167000 | 52H5D3B8-9# chimeric mAb (antibody, V domains shown, CDR3 mutant of the 52H5D3B8 chimeric mAb (human IgG1)) VH: QVQLQQSGAELVRPGASVKLSCKALGYTFTDYEMHWVKQTPVHGLEWIGAIHPGSGGTAYNQKFKGKATLTADKFSSTGYMELSSLTSEDSAVYYCTRFYSFAYWGQGTLVTVSA VL: DVVMTQTPLSLPVSLGDQASISCRSSQSLVHSNGNTYLQWYLQKPGQSPKLLIYKVSNRFSGVPDRFSGSGSGTDFILKISRVEAEDLGVYFCSQSTHVPYTFGGGTKLEIK |
| – | – | – | 0.0869 | 1.06 | 0.000556 | 525000 | 52H5D3B8-3# chimeric mAb (antibody, V domains shown, CDR3 mutant of the 52H5D3B8 chimeric mAb (human IgG1)) VH: QVQLQQSGAELVRPGASVKLSCKALGYTFTDYEMHWVKQTPVHGLEWIGAIHPGSGGTAYNQKFKGKATLTADKFSSTGYMELSSLTSEDSAVYYCTRFYSYAYWGQGTLVTVSA VL: DVVMTQTPLSLPVSLGDQASISCRSSQSLVHSNGNTYLQWYLQKPGQSPKLLIYKVSNRFSGVPDRFSGSGSGTDFILKISRVEAEDLGVYFCFQSIHVPYTFGGGTKLEIK |
| – | – | – | 0.0986 | 1.72 | 0.000578 | 335000 | 52H5D3B8-4# chimeric mAb (antibody, V domains shown, CDR3 mutant of the 52H5D3B8 chimeric mAb (human IgG1)) VH: QVQLQQSGAELVRPGASVKLSCKALGYTFTDYEMHWVKQTPVHGLEWIGAIHPGSGGTAYNQKFKGKATLTADKFSSTGYMELSSLTSEDSAVYYCTRFYSYAYWGQGTLVTVSA VL: DVVMTQTPLSLPVSLGDQASISCRSSQSLVHSNGNTYLQWYLQKPGQSPKLLIYKVSNRFSGVPDRFSGSGSGTDFILKISRVEAEDLGVYFCSQSTHVPYTFGGGTKLEIK |
| – | – | – | 0.104 | 0.74 | 0.000288 | 390000 | 52H5D3B8-1# chimeric mAb (antibody, V domains shown, CDR3 mutant of the 52H5D3B8 chimeric mAb (human IgG1)) VH: QVQLQQSGAELVRPGASVKLSCKALGYTFTDYEMHWVKQTPVHGLEWIGAIHPGSGGTAYNQKFKGKATLTADKFSSTGYMELSSLTSEDSAVYYCTRYYSYAYWGQGTLVTVSA VL: DVVMTQTPLSLPVSLGDQASISCRSSQSLVHSNGNTYLQWYLQKPGQSPKLLIYKVSNRFSGVPDRFSGSGSGTDFILKISRVEAEDLGVYFCSQSIHVPYTFGGGTKLEIK |
| – | – | – | 0.176 | 4.05 | 0.00118 | 291000 | 52H5D3B8-10# chimeric mAb (antibody, V domains shown, CDR3 mutant of the 52H5D3B8 chimeric mAb (human IgG1)) VH: QVQLQQSGAELVRPGASVKLSCKALGYTFTDYEMHWVKQTPVHGLEWIGAIHPGSGGTAYNQKFKGKATLTADKFSSTGYMELSSLTSEDSAVYYCTRFYSYAYWGQGTLVTVSA VL: DVVMTQTPLSLPVSLGDQASISCRSSQSLVHSNGNTYLQWYLQKPGQSPKLLIYKVSNRFSGVPDRFSGSGSGTDFILKISRVEAEDLGVYFCFQSTHVPYTFGGGTKLEIK |
| – | – | – | 0.0919 | 2.03 | 0.001 | 494000 | 52H5D3B8-8# chimeric mAb (antibody, V domains shown, CDR3 mutant of the 52H5D3B8 chimeric mAb (human IgG1)) VH: QVQLQQSGAELVRPGASVKLSCKALGYTFTDYEMHWVKQTPVHGLEWIGAIHPGSGGTAYNQKFKGKATLTADKFSSTGYMELSSLTSEDSAVYYCTRFYSFAYWGQGTLVTVSA VL: DVVMTQTPLSLPVSLGDQASISCRSSQSLVHSNGNTYLQWYLQKPGQSPKLLIYKVSNRFSGVPDRFSGSGSGTDFILKISRVEAEDLGVYFCFQSIHVPYTFGGGTKLEIK |
